As a reminder, the Kd is a measure of binding affinity in units of concentration. One may read the stoichiometry N as the number of molecules, sites or subunits per partner or assembly.

To fix the notation:
B4: SinR^W104L (natural protein, B. subtilis)
chain: MIGQRIKQYRKEKGYSLSELAEKAGVAKSYLSSIERNLQTNPSIQFLEKVSAVLDVSVHTLLDEKHETEYDGQLDSEWEKLVRDAMTSGVSKKQFREFLDYQKLRKSQKEE
notes: SinR, Bacillus subtilis, with W104L; allele amplified from chromosomal DNA of the suppressor mutant with primer pair G8/G10, cloned in pET24a (NdeI/EcoRI); Spontaneous suppressor allele isolated in the laboratory from a ymdB mutant; source: E. coli BL21(DE3), purified (heparin Sepharose, size exclusion)
B6: SinR^A85T (natural protein, B. subtilis)
chain: MIGQRIKQYRKEKGYSLSELAEKAGVAKSYLSSIERNLQTNPSIQFLEKVSAVLDVSVHTLLDEKHETEYDGQLDSEWEKLVRDTMTSGVSKKQFREFLDYQKWRKSQKEE
notes: SinR, Bacillus subtilis, with A85T; allele amplified from chromosomal DNA of the suppressor mutant with primer pair G8/G10, cloned in pET24a (NdeI/EcoRI); Spontaneous suppressor allele isolated in the laboratory from a ymdB mutant; source: E. coli BL21(DE3), purified (heparin Sepharose, size exclusion)
B7: SinR^S43A (natural protein, B. subtilis)
chain: MIGQRIKQYRKEKGYSLSELAEKAGVAKSYLSSIERNLQTNPAIQFLEKVSAVLDVSVHTLLDEKHETEYDGQLDSEWEKLVRDAMTSGVSKKQFREFLDYQKWRKSQKEE
notes: SinR, Bacillus subtilis, with S43A; allele amplified from chromosomal DNA of the suppressor mutant with primer pair G8/G10, cloned in pET24a (NdeI/EcoRI); Spontaneous suppressor allele isolated in the laboratory from a ymdB mutant; source: E. coli BL21(DE3), purified (heparin Sepharose, size exclusion)
B8: SinR^W104R (natural protein, B. subtilis)
chain: MIGQRIKQYRKEKGYSLSELAEKAGVAKSYLSSIERNLQTNPSIQFLEKVSAVLDVSVHTLLDEKHETEYDGQLDSEWEKLVRDAMTSGVSKKQFREFLDYQKRRKSQKEE
notes: SinR, Bacillus subtilis, with W104R; allele amplified from chromosomal DNA of the suppressor mutant with primer pair G8/G10, cloned in pET24a (NdeI/EcoRI); Spontaneous suppressor allele isolated in the laboratory from a ymdB mutant; source: E. coli BL21(DE3), purified (heparin Sepharose, size exclusion)

One data set deals with T1, SinR W104R (Bacillus subtilis, UniProt P06533 1-111, W104R).
T1 sequence: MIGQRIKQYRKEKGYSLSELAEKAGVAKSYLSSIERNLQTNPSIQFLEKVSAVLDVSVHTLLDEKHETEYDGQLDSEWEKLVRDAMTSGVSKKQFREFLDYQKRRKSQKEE
In words: fluorescence polarization; 10 mM Tris-HCl pH 8.0, 100 mM NaCl, 1 mM EDTA; 10 nM labeled duplex, SinR diluted from 20 uM; temperature not stated. Conditions: protein: recombinant; tags: none (pET24a, native stop codon in primer G10); chain copies: 2; label: 5'-fluorescein (FAM) on strand 1; blunt. (Polarisation of emitted light reports the rotation of a fluorescent probe.)

In the next data set the target is T2, SinR A85T (Bacillus subtilis, UniProt P06533 1-111, A85T).
T2 sequence: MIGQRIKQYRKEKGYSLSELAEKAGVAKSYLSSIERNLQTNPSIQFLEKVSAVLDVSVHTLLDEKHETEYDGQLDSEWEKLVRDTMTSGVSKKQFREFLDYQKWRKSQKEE
Described as above. Conditions: protein: recombinant; tags: none (pET24a, native stop codon in primer G10); chain copies: 4; label: 5'-fluorescein (FAM) on strand 1; blunt.

A further data set addresses T3, SinR S43A (Bacillus subtilis, UniProt P06533 1-111, S43A).
T3 sequence: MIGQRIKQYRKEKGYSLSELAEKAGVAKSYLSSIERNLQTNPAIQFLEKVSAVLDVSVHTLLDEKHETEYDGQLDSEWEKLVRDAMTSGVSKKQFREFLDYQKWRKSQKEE
Described as above. Conditions: protein: recombinant; tags: none (pET24a, native stop codon in primer G10); chain copies: 4; label: 5'-fluorescein (FAM) on strand 1; blunt.

In the next data set the target is T4, SinR W104L (Bacillus subtilis, UniProt P06533 1-111, W104L).
T4 sequence: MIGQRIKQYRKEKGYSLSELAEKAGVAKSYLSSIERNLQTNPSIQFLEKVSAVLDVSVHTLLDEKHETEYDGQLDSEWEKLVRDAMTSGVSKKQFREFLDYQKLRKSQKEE
Described as above. Conditions: protein: recombinant; tags: none (pET24a, native stop codon in primer G10); chain copies: 2; label: 5'-fluorescein (FAM) on strand 1; blunt.

The next data set deals with T5, SinR wild type (Bacillus subtilis, UniProt P06533 1-111).
T5 sequence: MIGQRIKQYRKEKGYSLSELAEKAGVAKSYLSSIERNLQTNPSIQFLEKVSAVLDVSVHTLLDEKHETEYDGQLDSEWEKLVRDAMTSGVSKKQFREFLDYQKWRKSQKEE
The description is as above. The following applies: protein: recombinant; tags: none (pET24a, native stop codon in primer G10); chain copies: 4; label: 5'-fluorescein (FAM) on strand 1; blunt.

Another data set deals with T6, SinR K28T (Bacillus subtilis, UniProt P06533 1-111, K28T).
T6 sequence: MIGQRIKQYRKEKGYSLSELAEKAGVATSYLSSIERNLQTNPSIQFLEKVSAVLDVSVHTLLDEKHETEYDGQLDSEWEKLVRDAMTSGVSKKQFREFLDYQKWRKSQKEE
In words: fluorescence polarization; no polarization change up to 20 uM protein; 10 mM Tris-HCl pH 8.0, 100 mM NaCl, 1 mM EDTA; 10 nM labeled duplex, SinR diluted from 20 uM; temperature not stated. The following applies: protein: recombinant; tags: none (pET24a, native stop codon in primer G10); chain copies: 4; label: 5'-fluorescein (FAM) on strand 1; blunt.

The target of the data set “SinR^S43A” is B7. In words: fluorescence polarisation; displacement of fluorescein-labelled 21-bp operator DNA (10 nM) from 5 µM SinR by SinI titrated from 50 µM to 10 nM; 10 mM Tris-HCl pH 8.0, 100 mM NaCl, 1 mM EDTA; qualitative. Conditions: both partners purified.
The target in the data set “SinR^A85T” is B6. The description is as above. Conditions: both partners purified.
In the data set “SinR^W104L” the target is B4. The data set is described as above. The following applies: both partners purified.
The data set “SinR^W104R” deals with B8. The description is as above. The following applies: both partners purified.
Data set [1] deals with the molecule itself. In words: SEC-MALS; SinR proteins at 5 mg/ml (equivalent to 400 µM), 150 µl on Superdex 200 Increase 10/300 GL, 50 mM Tris-HCl pH 8.0, 250 mM NaCl, 0.5 ml/min; refractive index at 25°C.

B1: eps operator inverted-repeat SinR box duplex, 21 bp (FAM1721/C-1723) (dsDNA)
DNA 1: ATTGTTCTCTAAAGAGAACTT
DNA 2: AAGTTCTCTTTAGAGAACAAT
As to B1, the Kd with SinR W104R was 2580 ± 545 nM; in the data set with SinR A85T, 852 ± 39 nM; with SinR S43A it was 350 ± 81 nM; with SinR W104L it was 1900 ± 298 nM; with SinR wild type, 179 ± 24 nM. Moreover, the binding result with SinR K28T was “no binding”.

B2: SinI (natural protein, B. subtilis, UniProt P23308 1-57, looked up)
chain: MKNAKQEHFELDQEWVELMVEAKEANISPEEIRKYLLLNKKSAHPGPAARSHTVNPF
notes: SinI, antagonist of SinR, Bacillus subtilis; sinI gene amplified by PCR with primer pair G6/G7 and cloned into plasmid pC2; also called SinR antagonist SinI; source: E. coli BL21(DE3), purified (ANX ion exchange, size exclusion)
As to B2, the binding result with SinR^S43A and in the data set with SinR^A85T was “binds” in each case. The “percent of SinR-bound DNA released by a 10-fold molar excess of SinI” value with SinR^W104L and in the data set with SinR^W104R was approximately 60% throughout.

B3: SinR wild type (natural protein, B. subtilis)
chain: MIGQRIKQYRKEKGYSLSELAEKAGVAKSYLSSIERNLQTNPSIQFLEKVSAVLDVSVHTLLDEKHETEYDGQLDSEWEKLVRDAMTSGVSKKQFREFLDYQKWRKSQKEE
notes: SinR, master regulator of biofilm formation, Bacillus subtilis; sinR allele amplified from chromosomal DNA with primer pair G8/G10 and cloned between NdeI and EcoRI of pET24a; monomer printed as 12.85 kDa; The printed monomer mass of 12.85 kDa fits the whole protein of 111 residues; No tag is named and purification was by heparin and size exclusion; also called wild-type SinR; source: E. coli …
Turning to B3, the “stoichiometry N” value in data set [1] was 4.

Consider B4, for which, in data set [1], the “stoichiometry N” value is 2.

B5: SinR^K28T (natural protein, B. subtilis)
chain: MIGQRIKQYRKEKGYSLSELAEKAGVATSYLSSIERNLQTNPSIQFLEKVSAVLDVSVHTLLDEKHETEYDGQLDSEWEKLVRDAMTSGVSKKQFREFLDYQKWRKSQKEE
notes: SinR, Bacillus subtilis, with K28T; allele amplified from chromosomal DNA of the suppressor mutant with primer pair G8/G10, cloned in pET24a (NdeI/EcoRI); Spontaneous suppressor allele isolated in the laboratory from a ymdB mutant; source: E. coli BL21(DE3), purified (heparin Sepharose, size exclusion)
Turning to B5, the “stoichiometry N” value in [1] came out at 4.

For the molecule B6, the “stoichiometry N” value in [1] worked out at 4.

On to B7, for which, in data set [1], the “stoichiometry N” value is 4.

In the case of B8, the “stoichiometry N” value in data set [1] came to 2.

Values taken from article PMC6123443, “Selective Pressure for Biofilm Formation in Bacillus subtilis: Differential Effect of Mutations in the Master Regulator SinR on Bistability” (mBio, 2018).
